The source of these data is patent US20020064802.

Read-outs that look alike come from different tables or passages of the source.

In data set [1] the test system is VEGF 3a/1 ZFP (NLS-ZFP-VP16-FLAG) (synthetic construct (SP1 backbone)). To be noted: ChIP anti-FLAG, 293 cells, GAPDH-normalized; 170.4 in Table 7.
Data set [2] concerns GATA 15.5 ZFP (NLS-ZFP-VP16-FLAG) (synthetic construct (SP1 backbone)). To be noted: ChIP anti-FLAG, 293 cells, GAPDH-normalized; 1.9 in Table 7; control ZFP.
Data set [3] deals with VEGF 3a/1 ZFP (NLS-ZFP-VP16-FLAG) (synthetic construct (SP1 backbone)). Description: cell_activity. Particulars: 293 cells.
Data set [4] relates to GATA 15.5 ZFP (NLS-ZFP-VP16-FLAG) (synthetic construct (SP1 backbone)). Put plainly: cell_activity. To be noted: 293 cells.
In data set [5] the test system is VEGF 3a/1 ZFP (NLS-ZFP-VP16-FLAG) (synthetic construct (SP1 backbone)). To be noted: ChIP anti-FLAG, 293 cells, GAPDH-normalized.
Data set [6] deals with GATA 15.5 ZFP (NLS-ZFP-VP16-FLAG) (synthetic construct (SP1 backbone)). To be noted: ChIP anti-FLAG, 293 cells, GAPDH-normalized; designed for a different site.

Consider GGGGAGGATCGCGGAGGCTT (double strand), for which the binding signal (fold enrichment vs NVF) in data set [1] is 74.1; in data set [2], 0.88. For the same substance, the activity (fold luciferase vs NVF) in data set [3] (integrated reporter, 10 in Table 8) was 18; in data set [4] (integrated reporter, 1 in Table 8), 0.8.

The substance “GGGGAGGATCGCGGAGGCTT (double strand) [endogenous VEGF-A gene target at +1 accessible region]” gave an activity (fold VEGF mRNA vs NVF) in data set [3] (VEGF protein 1.2, mRNA 1.0 and protein 1.5 in Table 9) of 1.6. Besides, the binding signal (fold enrichment vs NVF) in data set [5] turned out to be 12.1.

As for “endogenous VEGF-A gene (GATA 15.5 bound site not mapped)”, in data set [4] (VEGF protein 1.2, mRNA 2.0 and protein 2.0 in Table 9), the activity (fold VEGF mRNA vs NVF) was 2. Also, in data set [6], the binding signal (fold enrichment vs NVF) was determined as 4.1.
